Data taken from paper PMC7072198, “An Epitope on EGFR Loading Catastrophic Internalization Serve as a Novel Oncotarget for Hepatocellular Carcinoma Therapy” (Cancers, 2020).

Target: T1, EGFR extracellular domain (ECD), wild type (human, UniProt P00533 25-645)
T1 construct: Epidermal growth factor receptor, human, extracellular domain; The Biacore legend and methods say only 'recombinant human EGFR' / 'EGFR protein'; also called EGFR ECD; EGFR ectodomain
Experiment: ITC; MicroCal VP-ITC; nineteen 3 μL aliquots of 400 μM rLZ-8 injected into 20 μM EGFR ectodomain; single site binding model
Conditions: both partners purified

B1: recombinant Lingzhi-8 (rLZ-8), wild type (natural protein, Ganoderma lucidum, UniProt P14945 1-111, looked up)
chain: MSDTALIFRLAWDVKKLSFDYTPNWGRGNPNNFIDTVTFPKVLTDKAYTYRVAVSGRNLGVKPSYAVESDGSQKVNFLEYNSGYGIADTNTIQVFVVDPDTNNDFIIAQWN
notes: Lingzhi-8 (LZ-8) from Ganoderma lucidum, codon-optimised synthetic gene; Fluorescently labelled (red/green) in the cell experiments; also called rLZ-8^wt; source: Pichia pastoris X33 (pGAPZα A vector), culture supernatant, purified
stoichiometry N: 2 rLZ-8 per EGFR ECD
